Measurements taken from patent US20240279309A1 (Molecular Partners, published 2024).

B1: SMA099 (SEQ ID NO: 104) (designed binder)
chain: MRGSHHHHHHGSDLGKKLLEAARAGQDDEVRELLKAGADVNAKDYFSHTPLHLAARNGHLKIVEVLLKAGADVNAKDFAGKTPLHLAAADGHLEIVEVLLKAGADVNAQDIFGKTPADIAADAGHEDIAEVLQKAAGSPTPTPTTPTPTPTTPTPTPTGSDLGEKLLVAALYGQDDEVRELLKAGADVNAKDQWGLTPLHKAALQGHLEIVEVLLKAGADVNAKDERGHTPLHWAARFGHLEIVEVLLKAGADVNAQDQKGYTPADLAALWGHEDIAEVLQKAAGSPTPTPTTPTPTPTTPTPTPTGSDLGKKLLQAARAGQLDEVRELLKAGADVNAKDTWGFTPLHIAAESGHLEIVEVLLKAGADVNAKDVQGRTPLHIAAHSGHLEIVEVLLKAGADVNAKDFRGWTPLHLAAWSGHLEIVEILLKAGADVNAQDKSGKTPADLAARAGHQDIAEVLQKAAGSPTPTPTTPTPTPTTPTPTPTGSDLGKKLLQAARAGQLDEVRELLKAGADVNAKDTWGFTPLHIAAESGHLEIVEVLLKAGADVNAKDVQGRTPLHIAAHSGHLEIVEVLLKAGADVNAKDFRGWTPLHLAAWSGHLEIVEILLKAGADVNAQDKSGKTPADLAARAGHQDIAEVLQKAAGSPTPTPTTPTPTPTTPTPTPTGSDLGKKLLEAARAGQDDEVRELLKAGADVNAKDYFSHTPLHLAARNGHLKIVEVLLKAGADVNAKDFAGKTPLHLAAADGHLEIVEVLLKAGADVNAQDIFGKTPADIAADAGHEDIAEVLQKAA
B2: SMA095 (SEQ ID NO: 101) (designed binder)
chain: MRGSHHHHHHGSDLGKKLLEAARAGQDDEVRELLKAGADVNAKDYFSHTPLHLAARNGHLKIVEVLLKAGADVNAKDFAGKTPLHLAAADGHLEIVEVLLKAGADVNAQDIFGKTPADIAADAGHEDIAEVLQKAAGSPTPTPTTPTPTPTTPTPTPTGSDLGEKLLVAALYGQDDEVRELLKAGADVNAKDQWGLTPLHKAALQGHLEIVEVLLKAGADVNAKDERGHTPLHWAARFGHLEIVEVLLKAGADVNAQDQKGYTPADLAALWGHEDIAEVLQKAAGSPTPTPTTPTPTPTTPTPTPTGSDLGKKLLQAARAGQLDEVRELLKAGADVNAKDTWGFTPLHIAAESGHLEIVEVLLKAGADVNAKDVQGRTPLHIAAHSGHLEIVEVLLKAGADVNAKDFRGWTPLHLAAWSGHLEIVEILLKAGADVNAQDKSGKTPADLAARAGHQDIAEVLQKAAGSPTPTPTTPTPTPTTPTPTPTGSDLGKKLLEAARAGQDDEVRELLKAGADVNAKDYFSHTPLHLAARNGHLKIVEVLLKAGADVNAKDFAGKTPLHLAAADGHLEIVEVLLKAGADVNAQDIFGKTPADIAADAGHEDIAEVLQKAA
B3: SMA091 (SEQ ID NO: 103) (designed binder)
chain: MRGSHHHHHHGSDLGKKLLEAARAGQDDEVRELLKAGADVNAKDYFSHTPLHLAARNGHLKIVEVLLKAGADVNAKDFAGKTPLHLAAADGHLEIVEVLLKAGADVNAQDIFGKTPADIAADAGHEDIAEVLQKAAGSPTPTPTTPTPTPTTPTPTPTGSDLGEKLLVAALYGQDDEVRELLKAGADVNAKDQWGLTPLHKAALQGHLEIVEVLLKAGADVNAKDERGHTPLHWAARFGHLEIVEVLLKAGADVNAQDQKGYTPADLAALWGHEDIAEVLQKAAGSPTPTPTTPTPTPTTPTPTPTGSDLGKKLLQAARAGQLDEVRELLKAGADVNAKDTWGFTPLHIAAESGHLEIVEVLLKAGADVNAKDVQGRTPLHIAAHSGHLEIVEVLLKAGADVNAKDFRGWTPLHLAAWSGHLEIVEILLKAGADVNAQDKSGKTPADLAARAGHQDIAEVLQKAAGSPTPTPTTPTPTPTTPTPTPTGSDLGKKLLQAARAGQLDEVRELLKAGADVNAKDTWGFTPLHIAAESGHLEIVEVLLKAGADVNAKDVQGRTPLHIAAHSGHLEIVEVLLKAGADVNAKDFRGWTPLHLAAWSGHLEIVEILLKAGADVNAQDKSGKTPADLAARAGHQDIAEVLQKAA
B4: SMA105 (SEQ ID NO: 106) (designed binder)
chain: MRGSHHHHHHGSDLGEKLLVAALYGQDDEVRELLKAGADVNAKDQWGLTPLHKAALQGHLEIVEVLLKAGADVNAKDERGHTPLHWAARFGHLEIVEVLLKAGADVNAQDQKGYTPADLAALWGHEDIAEVLQKAAGSPTPTPTTPTPTPTTPTPTPTGSDLGKKLLQAARAGQLDEVRELLKAGADVNAKDTWGFTPLHIAAESGHLEIVEVLLKAGADVNAKDVQGRTPLHIAAHSGHLEIVEVLLKAGADVNAKDFRGWTPLHLAAWSGHLEIVEILLKAGADVNAQDKSGKTPADLAARAGHQDIAEVLQKAAGSPTPTPTTPTPTPTTPTPTPTGSDLGKKLLQAARAGQLDEVRELLKAGADVNAKDTWGFTPLHIAAESGHLEIVEVLLKAGADVNAKDVQGRTPLHIAAHSGHLEIVEVLLKAGADVNAKDFRGWTPLHLAAWSGHLEIVEILLKAGADVNAQDKSGKTPADLAARAGHQDIAEVLQKAAGSPTPTPTTPTPTPTTPTPTPTGSDLGKKLLQAARAGQLDEVRELLKAGADVNAKDTWGFTPLHIAAESGHLEIVEVLLKAGADVNAKDVQGRTPLHIAAHSGHLEIVEVLLKAGADVNAKDFRGWTPLHLAAWSGHLEIVEILLKAGADVNAQDKSGKTPADLAARAGHQDIAEVLQKAA

Columns and labels:
Assay in all cases: cell-based or functional assay
[1] = molecular target: T1, CD40 receptor on cells (HEK293 reporter cells expressing CD40; primary human B cells) (human, UniProt P25942 21-277)
[2] = molecular target: T1, CD40 receptor on cells (HEK293 reporter …); remark: listed apart in the source
[3] = molecular target: T1, CD40 receptor on cells (HEK293 reporter …); remark: listed apart in the source

T1 sequence (P25942 21-277): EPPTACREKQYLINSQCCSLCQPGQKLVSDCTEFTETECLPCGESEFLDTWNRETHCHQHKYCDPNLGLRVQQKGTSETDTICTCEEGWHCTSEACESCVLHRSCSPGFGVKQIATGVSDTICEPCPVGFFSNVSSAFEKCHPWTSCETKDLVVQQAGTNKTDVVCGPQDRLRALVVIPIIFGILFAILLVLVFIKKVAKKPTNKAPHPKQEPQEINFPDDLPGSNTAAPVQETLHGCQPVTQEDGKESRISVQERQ

| Binder | EC50 [nM], % CD86, human B cells with FAP-CHO, w HSA [1] | EC50 [nM], % CD86, human B cells with FAP-CHO, w/o HSA [1] | EC50 [nM], MFI CD86, human B cells with FAP-CHO, w HSA [1] | EC50 [nM], MFI CD86, human B cells with FAP-CHO, w/o HSA [1] | Efficacy [MFI at highest dose], MFI CD86, human B cells with FAP-CHO, w HSA [2] | Efficacy [MFI at highest dose], MFI CD86, human B cells with FAP-CHO, w/o HSA [2] | Efficacy at highest dose, % CD86, human B cells with FAP-CHO, w HSA [2] | Efficacy at highest dose, % CD86, human B cells with FAP-CHO, w/o HSA [2] | Efficacy [MFI at highest dose], MFI CD86, human B cells with WT-CHO (no FAP), w HSA [3] | Efficacy [MFI at highest dose], MFI CD86, human B cells with WT-CHO (no FAP), w/o HSA [3] | Efficacy at highest dose, % CD86, human B cells with WT-CHO (no FAP), w HSA [3] | Efficacy at highest dose, % CD86, human B cells with WT-CHO (no FAP), w/o HSA [3] |
| --- | --- | --- | --- | --- | --- | --- | --- | --- | --- | --- | --- | --- |
| B1 | 7.5 nM | 4.68 nM | 19.4 nM | 18.2 nM | 1720 MFI | 4950 MFI | 71.7% | 84.4% | 274 MFI | 289 MFI | 42.5% | 47.4% |
| B2 |  | 89.8 nM |  | 288 nM | 232 MFI | 773 MFI |  | 28.7% | 306 MFI | 299 MFI | 13.7% | 12.5% |
| B3 | 2.98 nM | 0.76 nM | 8.05 nM | 3.93 nM | 2980 MFI | 6230 MFI | 75.6% | 78.2% | 296 MFI | 290 MFI | 43.1% | 47.8% |
| B4 |  | 0.11 nM |  | 0.33 nM |  | 5560 MFI |  | 87.2% |  | 672 MFI |  | 69.2% |
